Laboratory results taken from patent US20100202967A1 (BRACCO IMAGING, published 2010).
Bridge positions count the residues as written; N and C are the ends. Square brackets hold non-standard residues; d marks the D form. * marks the point of attachment. αGalNAc = CC(=O)N[C@@H]1[C@@H](O)[C@@H](O)[C@@H](CO)O[C@@H]1*; Hyp = O=C(O)[C@@H]1C[C@@H](O)CN1; Cha = N[C@@H](CC1CCCCC1)C(=O)O; CF5 = 5-carboxyfluorescein; AEEA = NCCOCCOCC(=O)O

T1: fibrin
T1 chain 1: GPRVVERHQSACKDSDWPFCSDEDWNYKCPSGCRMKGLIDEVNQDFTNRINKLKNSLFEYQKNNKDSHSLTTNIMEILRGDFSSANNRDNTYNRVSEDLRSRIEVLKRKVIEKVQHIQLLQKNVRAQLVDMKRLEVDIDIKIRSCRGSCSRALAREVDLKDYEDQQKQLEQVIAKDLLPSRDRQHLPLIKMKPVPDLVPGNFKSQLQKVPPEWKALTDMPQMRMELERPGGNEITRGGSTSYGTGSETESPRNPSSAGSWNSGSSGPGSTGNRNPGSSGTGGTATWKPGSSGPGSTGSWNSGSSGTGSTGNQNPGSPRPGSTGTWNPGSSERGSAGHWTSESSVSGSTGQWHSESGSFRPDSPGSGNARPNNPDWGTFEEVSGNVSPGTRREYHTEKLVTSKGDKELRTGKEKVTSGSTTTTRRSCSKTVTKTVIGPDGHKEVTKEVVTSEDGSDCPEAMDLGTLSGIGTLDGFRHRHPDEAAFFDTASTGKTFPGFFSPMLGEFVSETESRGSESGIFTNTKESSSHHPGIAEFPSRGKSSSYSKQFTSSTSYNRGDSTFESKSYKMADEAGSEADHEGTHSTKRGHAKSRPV
T1 chain 2: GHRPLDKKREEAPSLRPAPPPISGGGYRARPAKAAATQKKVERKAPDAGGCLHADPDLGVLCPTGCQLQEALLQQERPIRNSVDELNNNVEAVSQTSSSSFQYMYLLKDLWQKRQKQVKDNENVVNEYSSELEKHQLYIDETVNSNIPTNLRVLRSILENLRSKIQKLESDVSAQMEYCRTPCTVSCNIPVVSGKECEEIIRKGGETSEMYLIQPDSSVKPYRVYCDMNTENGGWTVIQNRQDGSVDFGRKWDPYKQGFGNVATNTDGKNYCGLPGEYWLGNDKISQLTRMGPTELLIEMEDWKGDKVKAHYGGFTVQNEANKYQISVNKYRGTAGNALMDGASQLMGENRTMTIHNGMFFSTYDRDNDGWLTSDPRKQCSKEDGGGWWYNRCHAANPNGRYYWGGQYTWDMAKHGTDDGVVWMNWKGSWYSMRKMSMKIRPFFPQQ
T1 chain 3: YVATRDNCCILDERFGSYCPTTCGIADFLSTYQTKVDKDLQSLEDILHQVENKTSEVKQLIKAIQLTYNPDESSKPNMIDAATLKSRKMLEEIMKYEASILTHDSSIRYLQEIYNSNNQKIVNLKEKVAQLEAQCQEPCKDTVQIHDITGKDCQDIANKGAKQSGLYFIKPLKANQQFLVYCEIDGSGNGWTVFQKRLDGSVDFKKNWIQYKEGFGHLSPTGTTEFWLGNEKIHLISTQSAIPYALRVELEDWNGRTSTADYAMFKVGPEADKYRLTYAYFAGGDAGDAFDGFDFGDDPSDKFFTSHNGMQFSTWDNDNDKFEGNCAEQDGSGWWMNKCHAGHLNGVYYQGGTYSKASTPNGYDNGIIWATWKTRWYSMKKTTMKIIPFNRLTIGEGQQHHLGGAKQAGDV

B1: Ac-S(Galnac)-JWQPC*PWESWTFC*WDPGGGK-NH2 (peptide)
peptide: Ac-S(αGalNAc)[AEEA]WQPCPWESWTFCWDPGGGK-NH2
modifications: disulfide 6-14
SMILES: CC(=O)N[C@H]1[C@@H](OC[C@H](NC(C)=O)C(=O)NCCOCCOCC(=O)N[C@@H](Cc2c[nH]c3ccccc23)C(=O)N[C@@H](CCC(N)=O)C(=O)N2CCC[C@H]2C(=O)N[C@H]2CSSC[C@@H](C(=O)N[C@@H](Cc3c[nH]c4ccccc34)C(=O)N[C@@H](CC(=O)O)C(=O)N3CCC[C@H]3C(=O)NCC(=O)NCC(=O)NCC(=O)N[C@@H](CCCCN)C(N)=O)NC(=O)[C@H](Cc3ccccc3)NC(=O)[C@H]([C@@H](C)O)NC(=O)[C@H](Cc3c[nH]c4ccccc34)NC(=O)[C@H](CO)NC(=O)[C@H](CCC(=O)O)NC(=O)[C@H](Cc3c[nH]c4ccccc34)NC(=O)[C@@H]3CCCN3C2=O)O[C@H](CO)[C@H](O)[C@@H]1O
B2: Ac-WQPC*PAESWTFC*WDPGGGK-NH2 (peptide)
peptide: Ac-WQPCPAESWTFCWDPGGGK-NH2
modifications: disulfide 4-12
SMILES: CC(=O)N[C@@H](Cc1c[nH]c2ccccc12)C(=O)N[C@@H](CCC(N)=O)C(=O)N1CCC[C@H]1C(=O)N[C@H]1CSSC[C@@H](C(=O)N[C@@H](Cc2c[nH]c3ccccc23)C(=O)N[C@@H](CC(=O)O)C(=O)N2CCC[C@H]2C(=O)NCC(=O)NCC(=O)NCC(=O)N[C@@H](CCCCN)C(N)=O)NC(=O)[C@H](Cc2ccccc2)NC(=O)[C@H]([C@@H](C)O)NC(=O)[C@H](Cc2c[nH]c3ccccc23)NC(=O)[C@H](CO)NC(=O)[C@H](CCC(=O)O)NC(=O)[C@H](C)NC(=O)[C@@H]2CCCN2C1=O
B3: Ac-RRGGWQPC*PWESWTFC*WDPGGGK-NH2 (peptide)
peptide: Ac-RRGGWQPCPWESWTFCWDPGGGK-NH2
modifications: disulfide 8-16
SMILES: CC(=O)N[C@@H](CCCNC(=N)N)C(=O)N[C@@H](CCCNC(=N)N)C(=O)NCC(=O)NCC(=O)N[C@@H](Cc1c[nH]c2ccccc12)C(=O)N[C@@H](CCC(N)=O)C(=O)N1CCC[C@H]1C(=O)N[C@H]1CSSC[C@@H](C(=O)N[C@@H](Cc2c[nH]c3ccccc23)C(=O)N[C@@H](CC(=O)O)C(=O)N2CCC[C@H]2C(=O)NCC(=O)NCC(=O)NCC(=O)N[C@@H](CCCCN)C(N)=O)NC(=O)[C@H](Cc2ccccc2)NC(=O)[C@H]([C@@H](C)O)NC(=O)[C@H](Cc2c[nH]c3ccccc23)NC(=O)[C@H](CO)NC(=O)[C@H](CCC(=O)O)NC(=O)[C@H](Cc2c[nH]c3ccccc23)NC(=O)[C@@H]2CCCN2C1=O

Target: T1, fibrin
Experiment: fluorescence polarization, direct binding (n = 2)

| Kd [nM] | Binder |
| --- | --- |
| 250 | Ac-GPPGWQPCPWESWTFCWDPGGGK(CF5)-NH2 (disulfide 8-16) [Ac-GPPGWQPC*PWESWTFC*WDPGGGK(CF5)-NH2] |
| 470 | Ac-SGSGSGSGWQPCPWESWTFCWDPGGGK(CF5)-NH2 (disulfide 12-20) [Ac-SGSGSGSGWQPC*PWESWTFC*WDPGGGK(CF5)-NH2] |
| 280 | H-RGWQPCPWESWTFCWDPGGGK(CF5)-NH2 (disulfide 6-14) [RGWQPC*PWESWTFC*WDPGGGK(CF5)-NH2] |
| 170 | Ac-WQPCPAESWT[Cha]CWDPGGGK(CF5)-NH2 (disulfide 4-12) [Ac-WQPC*PAESWT-Cha-C*WDPGGGK(CF5)-NH2] |
| 290 | Ac-GGRGWQPCPWESWTFCWDPGGGK(CF5)-NH2 (disulfide 8-16) [Ac-GGRGWQPC*PWESWTFC*WDPGGGK(CF5)-NH2] |
| 710 | Ac-KKGWQPCPWESWTFCWDPGGGK(CF5)-NH2 (disulfide 7-15) [Ac-KKGWQPC*PWESWTFC*WDPGGGK(CF5)-NH2] |
| 80 | Ac-RWQPCPAESWT[Cha]CWDPGGGK(CF5)-NH2 (disulfide 5-13) [Ac-RWQPC*PAESWT-Cha-C*WDPGGGK(CF5)-NH2] |
| 760 | Ac-KGKGKGWQPCPWESWTFCWDPGGGK(CF5)-NH2 (disulfide 10-18) [Ac-KGKGKGWQPC*PWESWTFC*WDPGGGK(CF5)-NH2] |
| 520 | Ac-GGRGWQPCPAESWTFCWDPGGGK(CF5)-NH2 (disulfide 8-16) [Ac-GGRGWQPC*PAESWTFC*WDPGGGK(CF5)-NH2] |
| 310 | Ac-GPPGWQPCPAESWTFCWDPGGGK(CF5)-NH2 (disulfide 8-16) [Ac-GPPGWQPC*PAESWTFC*WDPGGGK(CF5)-NH2] |
| 530 | Ac-SGSGSGSGWQPCPAESWTFCWDPGGGK(CF5)-NH2 (disulfide 12-20) [Ac-SGSGSGSGWQPC*PAESWTFC*WDPGGGK(CF5)-NH2] |
| 500 | Ac-S(αGalNAc)WQPCPWESWTFCWDPGGGK(CF5)-NH2 (disulfide 5-13) [Ac-S(Galnac)-WQPC*PWESWTFC*WDPGGGK(CF5)-NH2] |
| 220 | Ac-RRGGWQPCPAESWTFCWDPGGGK(CF5)-NH2 (disulfide 8-16) [Ac-RRGGWQPC*PAESWTFC*WDPGGGK(CF5)-NH2] |
| 570 | Ac-SGSG[AEEA]WQPCPAESWTFCWDPGGGK(CF5)-NH2 (disulfide 9-17) [Ac-SGSGJWQPC*PAESWTFC*WDPGGGK(CF5)-NH2] |
| 450 | Ac-SGSG[AEEA]WQPCPWESWTFCWDPGGGK(CF5)-NH2 (disulfide 9-17) [Ac-SGSGJWQPC*PWESWTFC*WDPGGGK(CF5)-NH2] |
| 230 | Ac-GWQPCPWESWTFCWDPGGGK(CF5)-NH2 (disulfide 5-13) [Ac-GWQPC*PWESWTFC*WDPGGGK(CF5)-NH2] |

Target: T1, fibrin
Experiment: competition fluorescence polarization assay (n = 2)

| Rel IC50 | Binder |
| --- | --- |
| 1.15 ratio to Ac-Seq000-GGGK-NH2 | B1 |
| 0.55 ratio to Ac-Seq000-GGGK-NH2 | Ac-WQPC[Hyp]WESWTFCWDPGGGK-NH2 (disulfide 4-12) [Ac-WQPC*-Hypt4-WESWTFC*WDPGGGK-NH2] |
| 0.875 ratio to Ac-Seq000-GGGK-NH2 | B2 |
| 0.511 ratio to Ac-Seq000-GGGK-NH2 | H-RGWQPCPWESWTFCWDPGGGK-NH2 (disulfide 6-14) [RGWQPC*PWESWTFC*WDPGGGK-NH2] |
| 0.47 ratio to Ac-Seq000-GGGK-NH2 | H-RWQPCPWESWTFCWDPGGGK-NH2 (disulfide 5-13) [RWQPC*PWESWTFC*WDPGGGK-NH2] |
| 0.527 ratio to Ac-Seq000-GGGK-NH2 | Ac-SGSGSGSGWQPCPWESWTFCWDPGGGK-NH2 (disulfide 12-20) [Ac-SGSGSGSGWQPC*PWESWTFC*WDPGGGK-NH2] |
| 0.559 ratio to Ac-Seq000-GGGK-NH2 | Ac-S(αGalNAc)WQPCPWESWTFCWDPGGGK-NH2 (disulfide 5-13) [Ac-S(Galnac)-WQPC*PWESWTFC*WDPGGGK-NH2] |
| 0.235 ratio to Ac-Seq000-GGGK-NH2 | Ac-GPPGWQPCPWESWTFCWDPGGGK-NH2 (disulfide 8-16) [Ac-GPPGWQPC*PWESWTFC*WDPGGGK-NH2] |
| 0.714 ratio to Ac-Seq000-GGGK-NH2 | Ac-SGSG[AEEA]WQPCPWESWTFCWDPGGGK-NH2 (disulfide 9-17) [Ac-SGSGJWQPC*PWESWTFC*WDPGGGK-NH2] |
| 0.357 ratio to Ac-Seq000-GGGK-NH2 | Ac-KKGWQPCPWESWTFCWDPGGGK-NH2 (disulfide 7-15) [Ac-KKGWQPC*PWESWTFC*WDPGGGK-NH2] |
| 0.125 ratio to Ac-Seq000-GGGK-NH2 | B3 |
| 0.37 ratio to Ac-Seq000-GGGK-NH2 | Ac-GGRGWQPCPWESWTFCWDPGGGK-NH2 (disulfide 8-16) [Ac-GGRGWQPC*PWESWTFC*WDPGGGK-NH2] |
| 0.595 ratio to Ac-Seq000-GGGK-NH2 | Ac-KGKGKGWQPCPWESWTFCWDPGGGK-NH2 (disulfide 10-18) [Ac-KGKGKGWQPC*PWESWTFC*WDPGGGK-NH2] |
